The results in this text go back to US11898181B2, “Genetically modified isopropylmalate isomerase enzyme complexes and processes to prepare elongated 2-ketoacids and C5-C10 compounds therewith” (Dow Global Technologies LLC, priority 2017, dated 2022).

Broadly, the Km is the substrate concentration at which the rate is half of its maximum. As a reminder, the kcat is the maximal rate divided by the concentration of active sites. In general, kcat/Km refers to the second-order rate constant that governs catalysis at low substrate concentration.

Where a chain is given by its changes, count along the chain named. Names may count otherwise.

Format in all cases: biochemical, E. coli
Substrate in series [1]: CCCCC(O)(CC(=O)O)C(=O)O
Description: Kinetic analysis of LeuCD (LeuB-coupled HTP assay), Variant 6. To be noted: other: 2-BM 0-5 mM, pH 8, room temperature, 30 min.

Substrate in series [2]: CCCCCCC(O)(CC(=O)O)C(=O)O
Described as above. To be noted: other: 2-HM 0-1.6 mM, pH 8, room temperature, 30 min.

Substrate in series [3]: CCCCC(O)(CC(=O)O)C(=O)O
Description: Kinetic analysis of LeuCD (LeuB-coupled HTP assay), Variant 9. The conditions noted are these: other: 2-BM 0-5 mM, pH 8, room temperature, 30 min.

Substrate in series [4]: CCCCCCC(O)(CC(=O)O)C(=O)O
The series is described as above. To be noted: other: 2-HM 0-1.6 mM, pH 8, room temperature, 30 min.

Substrate in series [5]: CCCCC(O)(CC(=O)O)C(=O)O
Description: Kinetic analysis of LeuCD (LeuB-coupled HTP assay), Variant 59. To be noted: other: 2-BM 0-5 mM, pH 8, room temperature, 30 min.

Substrate in series [6]: CCCCCCC(O)(CC(=O)O)C(=O)O
Described as above. To be noted: other: 2-HM 0-1.6 mM, pH 8, room temperature, 30 min.

Substrate in series [7]: CCCCC(O)(CC(=O)O)C(=O)O
In words: Kinetic analysis of LeuCD (LeuB-coupled HTP assay), Variant 1. To be noted: other: 2-BM 0-5 mM, pH 8, room temperature, 30 min.

Substrate in series [8]: CCCCCCC(O)(CC(=O)O)C(=O)O
The series is described as above. To be noted: other: 2-HM 0-1.6 mM, pH 8, room temperature, 30 min.

Substrate in series [9]: CCCCC(O)(CC(=O)O)C(=O)O
Description: Kinetic analysis of LeuCD (LeuB-coupled HTP assay), Variant 61. To be noted: other: 2-BM 0-5 mM, pH 8, room temperature, 30 min.

Substrate in series [10]: CCCCCCC(O)(CC(=O)O)C(=O)O
Described as above. To be noted: other: 2-HM 0-1.6 mM, pH 8, room temperature, 30 min.

Substrate in series [11]: CCCCC(O)(CC(=O)O)C(=O)O
Description: Kinetic analysis of LeuCD (LeuB-coupled HTP assay), Variant 5. To be noted: other: 2-BM 0-5 mM, pH 8, room temperature, 30 min.

Substrate in series [12]: CCCCCCC(O)(CC(=O)O)C(=O)O
The description is as above. To be noted: other: 2-HM 0-1.6 mM, pH 8, room temperature, 30 min.

Substrate in series [13]: CC(C)[C@@](O)(CC(=O)O)C(=O)O
In words: Kinetic analysis of LeuCD (LeuB-coupled HTP assay), Variant 3 (wild type). The conditions noted are these: other: 2-IPM 0-0.625 mM, pH 8, room temperature, 30 min.

Substrate in series [14]: CCCCC(O)(CC(=O)O)C(=O)O
The series is described as above. The conditions noted are these: other: 2-BM 0-5 mM, pH 8, room temperature, 30 min.

Substrate in series [15]: CCCCCCC(O)(CC(=O)O)C(=O)O
Described as above. The conditions noted are these: other: 2-HM 0-1.6 mM, pH 8, room temperature, 30 min.

B1: E. coli isopropylmalate isomerase LeuCD complex, Variant 6 (wt LeuC + L31G-LeuD; parents SEQ ID NO: 1 and SEQ ID NO: 2) (Escherichia coli K-12; L31G) (protein)
chain 1: MGSSHHHHHHSSGMAKTLYEKLFDAHVVYEAENETPLLYIDRHLVHEVTSPQAFDGLRAHGRPVRQPGKTFATMDHNVSTQTKDINACGEMARIQMQELIKNCKEFGVELYDLNHPYQGIVHVMGPEQGVTLPGMTIVCGDSHTATHGAFGALAFGIGTSEVEHVLATQTLKQGRAKTMKIEVQGKAAPGITAKDIVLAIIGKTGSAGGTGHVVEFCGEAIRDLSMEGRMTLCNMAIEMGAKAGLVAPDETTFNYVKGRLHAPKGKDFDDAVAYWKTLQTDEGATFDTVVTLQAEEISPQVTWGTNPGQVISVNDNIPDPASFADPVERASAEKALAYMGLKPGIPLTEVAIDKVFIGSCTNSRIEDLRAAAEIAKGRKVAPGVQALVVPGSGPVKAQAEAEGLDKIFIEAGFEWRLPGCSMCLAMNNDRLNPGERCASTSNRNFEGRQGRGGRTHLVSPAMAAAAAVTGHFADIRNIK
chain 2: MAEKFIKHTGLVVPLDAANVDTDAIIPKQFGQKVTRTGFGAHLFNDWRFLDEKGQQPNPDFVLNFPQYQGASILLARENFGCGSSREHAPWALTDYGFKVVIAPSFADIFYGNSFNNQLLPVKLSDAEVDELFALVKANPGIHFDVDLEAQEVKAGEKTYRFTIDAFRRHCMMNGLDSIGLTLQHDDAIAAYEAKQPAFMN
notes: expression of a His-tagged LeuC having 13 additional amino acids on the N-terminus; made in house; host or cells: E. coli BL21(DE3), whole cell lysate
For the protein B1, in [1], the Michaelis-Menten constant (Km) was 8440 ± 2400 µM, the catalytic constant (kcat) was found to be 0.132 ± 0.0333 s⁻¹ and the catalytic efficiency (kcat/Km) amounted to 17.2 ± 6.67 M⁻¹ s⁻¹. In series [2], the Michaelis-Menten constant (Km) amounted to 650 ± 40 µM, the kcat turned out to be 0.3436 ± 0.00944 s⁻¹ and the kcat/Km was determined as 532.5 ± 35.8 M⁻¹ s⁻¹.

B2: E. coli isopropylmalate isomerase LeuCD complex, Variant 9 (V35A-LeuC + L31G-LeuD; parents SEQ ID NO: 1 and SEQ ID NO: 2) (Escherichia coli K-12; L31G/V35A) (protein)
chain 1: B1 chain 1 with V48A
chain 2: B1 chain 2
notes: as for B1
As to B2, the kcat/Km in series [3] worked out at 0.56 ± 0 M⁻¹ s⁻¹. In series [4], the Michaelis constant (Km) came to 600 ± 34 µM, the kcat was 0.0461 ± 0.0014 s⁻¹ and the specificity constant (kcat/Km) was 78.6 ± 5 M⁻¹ s⁻¹.

B3: E. coli isopropylmalate isomerase LeuCD complex, Variant 59 (wt LeuC + L31V/H88A-LeuD; parents SEQ ID NO: 1 and SEQ ID NO: 2) (Escherichia coli K-12; H88A/L31V) (protein)
chain 1: B1 chain 1
chain 2: B1 chain 2 with G31V, H88A
notes: as for B1
On to B3, for which, in series [5], the Michaelis constant (Km) was 2700 ± 400 µM, the kcat was 0.0606 ± 0.00611 s⁻¹ and the catalytic efficiency (kcat/Km) came to 23.1 ± 3.89 M⁻¹ s⁻¹. In series [6], the Km is 3800 ± 900 µM, the kcat was 0.0506 ± 0.0103 s⁻¹ and the catalytic efficiency (kcat/Km) is 13.9 ± 4.44 M⁻¹ s⁻¹.

B4: E. coli isopropylmalate isomerase LeuCD complex, Variant 1 (V35A-LeuC + wt LeuD; parents SEQ ID NO: 1 and SEQ ID NO: 2) (Escherichia coli K-12; V35A) (protein)
chain 1: B1 chain 1 with V48A
chain 2: B1 chain 2 with G31L
notes: as for B1
In the case of B4, in [7], the Michaelis constant (Km) worked out at 3900 ± 700 µM, the kcat came to 0.151 ± 0.0231 s⁻¹ and the specificity constant (kcat/Km) was 40.3 ± 9.44 M⁻¹ s⁻¹. Besides, in series [8], the Km was 3350 ± 750 µM, the turnover number (kcat) is 0.0872 ± 0.0153 s⁻¹ and the specificity constant (kcat/Km) came out at 27.2 ± 7.78 M⁻¹ s⁻¹.

B5: E. coli isopropylmalate isomerase LeuCD complex, Variant 61 (wt LeuC + L31G/H88A-LeuD; parents SEQ ID NO: 1 and SEQ ID NO: 2) (Escherichia coli K-12; H88A/L31G) (protein)
chain 1: B1 chain 1
chain 2: B1 chain 2 with H88A
notes: as for B1
As to B5, the kcat/Km in series [9] was determined as 0.278 ± 0 M⁻¹ s⁻¹; in series [10], 6.11 ± 0.56 M⁻¹ s⁻¹.

B6: E. coli isopropylmalate isomerase LeuCD complex, Variant 5 (wt LeuC + L31A-LeuD; parents SEQ ID NO: 1 and SEQ ID NO: 2) (Escherichia coli K-12; L31A) (protein)
chain 1: B1 chain 1
chain 2: B1 chain 2 with G31A
notes: as for B1
As to B6, in [11], the Michaelis-Menten constant (Km) was 1310 ± 140 µM, the kcat is 0.3889 ± 0.0214 s⁻¹ and the catalytic efficiency (kcat/Km) turned out to be 299.2 ± 35.8 M⁻¹ s⁻¹. Besides, in series [12], the Michaelis-Menten constant (Km) is 1400 ± 600 µM, the catalytic constant (kcat) is 0.00972 ± 0.0014 s⁻¹ and the specificity constant (kcat/Km) was 8.06 ± 3.61 M⁻¹ s⁻¹.

B7: E. coli isopropylmalate isomerase LeuCD complex, wild type (Variant 3: Wt LeuC, SEQ ID NO: 1 + Wt LeuD, SEQ ID NO: 2) (Escherichia coli K-12) (protein)
chain 1: B1 chain 1
chain 2: B1 chain 2 with G31L
notes: as for B1
Take B7: in series [13], the Km came out at 68 ± 10 µM, the kcat turned out to be 0.4239 ± 0.0161 s⁻¹ and the kcat/Km amounted to 6212.8 ± 659.7 M⁻¹ s⁻¹. Further, in [14], the Michaelis-Menten constant (Km) worked out at 1330 ± 140 µM, the kcat is 1.7 ± 0.0897 s⁻¹ and the catalytic efficiency (kcat/Km) stood at 1291 ± 154 M⁻¹ s⁻¹. Besides, in [15], the kcat/Km amounted to 1.1 ± 0.28 M⁻¹ s⁻¹.
